This test addresses FITC-Dsn1 560-572 synthetic peptide (S. cerevisiae) (S. cerevisiae). The experiment in a line: fluorescence polarisation. Background: Polarisation of emitted light reports the rotation of a fluorescent probe.

One substance from paper PMC5856483 can be followed below.

For orientation: Kd means the free concentration of one partner at which half of the binding sites on the other are occupied at equilibrium, for simple one-to-one binding.

The substance “S. cerevisiae Spc24 155-213/Spc25 132-221 heterodimer (from UniProt Q04477 155-213; P40014 132-221) (complex)” had a Kd of 12 µM. That is a double-digit micromolar value.
